Laboratory results as given in patent US6767991.

What was measured:
Experiment in all cases: cell-based or functional assay
[1] = target: recombinant HCV NS3 protease type 1b (amino acid 1027 to 1206) (hepatitis C virus genotype 1b)
[2] = target: recombinant NS3 protease with the NS4A peptide cofactor … (molar ratio enzyme:cofactor 1:100) (hepatitis C virus genotype 1b)
[3] = target: human leukocyte elastase (human) (UniProt P08246)
[4] = target: porcine pancreatic elastase (porcine) (UniProt P00772)
Chain of porcine pancreatic elastase (porcine) (P00772 27-266): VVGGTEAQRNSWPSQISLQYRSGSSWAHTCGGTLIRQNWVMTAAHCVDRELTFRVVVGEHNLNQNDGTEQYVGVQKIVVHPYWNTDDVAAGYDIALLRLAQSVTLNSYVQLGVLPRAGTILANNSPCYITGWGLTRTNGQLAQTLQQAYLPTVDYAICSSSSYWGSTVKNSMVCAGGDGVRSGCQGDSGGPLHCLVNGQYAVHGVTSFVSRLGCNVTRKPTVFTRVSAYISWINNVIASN

[5] = target: human liver cathepsin B (human) (UniProt P07858)
[6] = target: bovine pancreatic α-chymotrypsin (bovine) (UniProt P00766)

Chain of human leukocyte elastase (human) (P08246 30-247 limits assumed): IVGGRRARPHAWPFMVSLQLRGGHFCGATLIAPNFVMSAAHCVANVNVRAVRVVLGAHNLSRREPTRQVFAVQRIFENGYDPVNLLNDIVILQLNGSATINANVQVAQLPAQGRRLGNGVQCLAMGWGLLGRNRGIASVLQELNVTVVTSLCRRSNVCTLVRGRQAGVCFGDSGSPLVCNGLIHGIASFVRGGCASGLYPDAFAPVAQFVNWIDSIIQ

Substance | IC50 [2] | other results
Compound 110 (Table 1): Ac-Asp-Asp-Chg-Val-Pro-Cys (peptide) |  | IC50 [1]: 24 µM
Compound 114 (Table 1): Ac-Asp-Asp-Ile-Chg-Pro-Cys (peptide) |  | IC50 [1]: 50 µM
Compound 115 (Table 1): Ac-Asp-Asp-Ile-Val-Abu-Cys (peptide) |  | IC50 [1]: 58 µM
Compound 123 (Table 1): Ac-Asp-Asp-Ile-Val-Pro-Nva (peptide) | 220 µM | HLE [3]: > 300 µM; PPE [4]: > 300 µM
Compound 127 (Table 1): Ac-Asp-Asp-Ile-Val-Pip-Nva (peptide) |  | IC50 [1]: 605 µM
Compound 129 (Table 1): Ac-Asp-Tbg-Ile-Val-Pro-Nva (peptide) |  | IC50 [1]: 270 µM
Compound 203 (Table 2): Ac-Asp-D-Glu-Ile-Val-Pro(O-Bn)-Nva (peptide) | 0.6 µM | Other [5]: > 300 µM; HLE [3]: > 300 µM; PPE [4]: > 300 µM
Compound 204 (Table 2): Ac-Asp-Asp-Ile-Val-Pro(o-tolyl-methoxy)-Nva (peptide) |  | IC50 [1]: 9.4 µM
Compound 205 (Table 2): Ac-Asp-Asp-Ile-Val-Pro(m-tolyl-methoxy)-Nva (peptide) |  | IC50 [1]: 6.7 µM
Compound 206 (Table 2): Ac-Asp-Asp-Ile-Val-Pro(p-tolyl-methoxy)-Nva (peptide) |  | IC50 [1]: 6.4 µM
Compound 210 (Table 2): Ac-Asp-D-Glu-Chg-Val-Pro(O-Bn)-Cys (peptide) | 0.033 µM | HLE [3]: > 300 µM; Other [6]: > 300 µM; PPE [4]: > 300 µM
Compound 212 (Table 2): Ac-Asp-D-Glu-Ile-Val-Pro(O-Bn)-Acca (peptide) | 0.21 µM | HLE [3]: > 300 µM; PPE [4]: > 300 µM
Compound 214 (Table 2): Ac-Asp-D-Glu-Chg-Val-Pro(2-NpCH2O)-Nva (peptide) | 0.028 µM | Other [5]: > 300 µM; HLE [3]: > 300 µM; Other [6]: > 300 µM; PPE [4]: > 300 µM
Compound 227 (Table 2): Ac-Chg-Val-Pro(1-NpCH2O)-Acca (peptide) |  | HLE [3]: > 600 µM
Compound 231 (Table 2): Ac-Chg-Chg-Pro(1-NpCH2O)-Acca (peptide) | 2.6 µM | 
Compound 232 (Table 2): AcOCH2-C(O)-Chg-Chg-Pro(1-NpCH2O)-Acca (peptide) | 1.4 µM | 
Compound 234 (Table 2): Ac-Chg-Chg-Pro(O-Bn)-Acca (peptide) | 41 µM | 
Compound 235 (Table 2): Boc-Chg-Chg-Pro(1-NpCH2O)-Acca (peptide) | 12 µM | 
Compound 238 (Table 2): Ac-Chg-Val-Pro((4Br-Ph)O)-Acca (peptide) | 27 µM | HLE [3]: 195 µM
Compound 239 (Table 2): Ac-Chg-Val-Pro((2Br-Ph)O)-Acca (peptide) | 27 µM | 
Compound 240 (Table 2): Ac-Chg-Val-Pro((3Br-Ph)O)-Acca (peptide) | 42 µM | 
Compound 242 (Table 2): Ac-Chg-Val-Pro((4Br-Ph)S)-Acca (peptide) | 36 µM | 
Compound 249 (Table 2): Ac-Chg-Val-Pro((4I-Ph)O)-Acca (peptide) | 9.7 µM | 
Compound 252 (Table 2): Ac-Chg-Val-Pro(1-NpCH2O)-Nva (peptide) | 20 µM | 
Compound 268 (Table 2): Ac-Chg-Val-Pro((3Br-Ph)CH2O)-Acca (peptide) | 24 µM | 

Substance | IC50 [2] | other results
Compound 272 (Table 2): Ac-Chg-Val-Pro((3,5-Br2-Ph)CH2O)-Acca (peptide) | 27 µM | 
Compound 501 (Table 5): Ac-Chg-Val-Pro(OBn)-P1(R14 Et; 1R, 2R) (peptide) | 17.1 µM | 
Compound 502 (Table 5): Ac-Chg-Val-Pro(OBn)-P1(R14 Et; 1R, 2?) (peptide) | 12.6 µM | 
Compound 503 (Table 5): Ac-Chg-Chg-Pro(1-NpCH2O)-P1(R14 Et; 1R, 2?) (peptide) | 1.35 µM | HLE [3]: 250 µM
Compound 504 (Table 5): Ac-Chg-Chg-Pro(1-NpCH2O)-P1(R14 Et; 1R, 2?) (peptide) | 9.53 µM | 
Compound 505 (Table 5): Ac-Chg-Chg-Pro(1-NpCH2O)-P1(R14 Et; 1R, 2R) (peptide) | 0.55 µM | 
Compound 506 (Table 5): Ac-Chg-Chg-Pro(1-NpCH2O)-P1(R14 Et; 1S, 2S) (peptide) |  | HLE [3]: > 400 µM
Compound 507 (Table 5): Ac-Chg-Val-Pro(1-NpCH2O)-P1(R14 Me; 1R, 2?) (peptide) | 5.1 µM | 
Compound 508 (Table 5): Ac-Chg-Val-Pro(1-NpCH2O)-P1(R14 CHMe2; 1R, 2?) (peptide) | 4.15 µM | 
Compound 509 (Table 5): Ac-Asp-D-Glu-Chg-Chg-Pro(1-NpCH2O)-P1(R14 Et; 1R, 2R) (peptide) | 0.015 µM | HLE [3]: > 300 µM
Compound 510 (Table 5): Ac-Chg-Val-Pro(1-NpCH2O)-P1(R14 CH2OCH2Ph; 1R, 2?) (peptide) | 15.5 µM | 
Compound 511 (Table 5): Ac-Chg-Val-Pro(1-NpCH2O)-P1(R14 CH2OCH2Ph; 1R, 2?) (peptide) | 32.5 µM | 
Compound 512 (Table 5): Ac-Chg-Val-Pro(1-NpCH2O)-P1(R14 (CH2)2Ph; 1R, 2?) (peptide) | 19.5 µM | 
Compound 513 (Table 5): Ac-Chg-Val-Pro(1-NpCH2O)-P1(R14 Et; 1R, 2R) (peptide) |  | HLE [3]: > 300 µM
Compound 514 (Table 5): Ac-Chg-Val-Pro(1-NpCH2O)-P1(R14 Et; 1S, 2S) (peptide) | 27.5 µM | 
Compound 515 (Table 5): Ac-Chg-Val-Pro(1-NpCH2O)-P1(R14 Bz; 1R, 2?) (peptide) | 9.2 µM | 
Compound 516 (Table 5): Ac-Chg-Val-Pro(1-NpCH2O)-P1(R14 Bz; 1R, 2?) (peptide) | 46.5 µM | 
Compound 518 (Table 5): Ac-Asp-D-Glu-Chg-Val-Pro(1-NpCH2O)-P1(R14 Et; 1R, 2R) (peptide) | 0.011 µM | HLE [3]: > 300 µM
Compound 519 (Table 5): Ac-Chg-Val-Pro(1-NpCH2O)-P1(R14 Pr; 1R, 2?) (peptide) | 3.45 µM | 
Compound 520 (Table 5): Ac-Chg-Val-Pro(1-NpCH2O)-P1(R14 Pr; 1R, 2?) (peptide) | 22.5 µM | 
Compound 521 (Table 5): Ac-Asp-D-Val-Chg-Val-Pro(1-NpCH2O)-P1(R14 Et; 1R, 2R) (peptide) | 0.024 µM | HLE [3]: > 300 µM
Compound 601 (Table 6): P4 Chg, P3 Val, R13 OBn, R14 CH═CH2 (peptide) | 3.61 µM | 
Compound 602 (Table 6): P4 Chg, P3 Chg, R13 1-NpCH2O, R14 CH═CH2 (peptide) | 0.13 µM | 
Compound 603 (Table 6): P4 Chg, P3 Val, R13 1-NpCH2O, R14 CH═CH2 (peptide) | 0.36 µM | 
Compound 604 (Table 6): P4 Chg, P3 Val, R13 OBn, R14 CH═CHBr* (peptide) | 2.55 µM | 
